The values that follow come from patent US11608374 (dated 2023).

Experiment [1] deals with T1, human sclerostin (human).
T1 chain: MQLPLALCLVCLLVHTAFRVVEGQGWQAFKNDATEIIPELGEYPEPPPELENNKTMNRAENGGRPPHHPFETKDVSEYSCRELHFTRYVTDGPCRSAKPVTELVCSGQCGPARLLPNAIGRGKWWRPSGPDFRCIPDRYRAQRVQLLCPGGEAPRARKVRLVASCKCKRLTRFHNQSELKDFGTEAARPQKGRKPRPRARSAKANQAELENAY
The experiment in a line: SPR, pH 7.4, 37C.

For experiment [2], the target named is T2, cynomolgus sclerostin (cynomolgus monkey).
T2 chain: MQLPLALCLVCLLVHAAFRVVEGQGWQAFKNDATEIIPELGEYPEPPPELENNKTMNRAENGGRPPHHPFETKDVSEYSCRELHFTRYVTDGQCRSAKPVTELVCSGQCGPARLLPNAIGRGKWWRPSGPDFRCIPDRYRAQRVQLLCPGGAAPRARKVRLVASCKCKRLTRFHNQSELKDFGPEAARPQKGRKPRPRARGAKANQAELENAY
The experiment is described as follows: SPR, pH 7.4, 37C.

The target of experiment [3] is T3, mouse sclerostin (mouse).
T3 chain: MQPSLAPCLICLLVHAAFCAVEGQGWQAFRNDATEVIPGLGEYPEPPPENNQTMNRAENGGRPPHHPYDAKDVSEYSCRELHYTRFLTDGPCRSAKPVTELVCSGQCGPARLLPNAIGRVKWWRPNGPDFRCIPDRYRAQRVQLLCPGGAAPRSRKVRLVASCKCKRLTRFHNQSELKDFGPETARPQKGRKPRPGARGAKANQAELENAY
The experiment in a line: SPR, pH 7.4, 37C.

Experiment [4] addresses T2, cynomolgus sclerostin. The experiment is described as follows: SPR, pH 7.4 to 5.8, 37C.
Experiment [5] addresses T4, rat sclerostin (rat).
T4 chain: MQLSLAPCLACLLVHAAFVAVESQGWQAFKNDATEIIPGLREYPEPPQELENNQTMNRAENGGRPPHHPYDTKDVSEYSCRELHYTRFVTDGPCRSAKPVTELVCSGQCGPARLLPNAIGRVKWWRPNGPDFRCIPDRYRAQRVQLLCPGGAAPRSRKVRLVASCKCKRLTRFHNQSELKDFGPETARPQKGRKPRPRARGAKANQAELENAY
The experiment is described as follows: SPR, pH 5.8, 37C.

The target in experiment [6] is T1, human sclerostin. The experiment is described as follows: SPR, pH 7.4 to 5.8, 37C.
Experiment [7] deals with T4, rat sclerostin. The experiment in a line: SPR, pH 7.4, 37C.
Experiment [8] has as its target T3, mouse sclerostin. The experiment in a line: SPR, pH 5.8, 37C.
Experiment [9] has as its target T1, human sclerostin. The experiment in a line: SPR, pH 7.4.
Experiment [10] concerns the target T1, human sclerostin. The experiment is described as follows: SPR, pH 7.4 to 5.8.
The target of experiment [11] is T2, cynomolgus sclerostin. The experiment is described as follows: SPR, pH 7.4 to 5.8.
Experiment [12] concerns the target T2, cynomolgus sclerostin. The experiment in a line: SPR, pH 7.4.
Experiment [13] addresses T1, human sclerostin. The experiment is described as follows: SPR, pH 5.8, 37C.
The target in experiment [14] is T2, cynomolgus sclerostin. The experiment is described as follows: SPR, pH 5.8, 37C.
The target in experiment [15] is T4, rat sclerostin. The experiment is described as follows: SPR, pH 7.4 to 5.8, 37C.

B1: mabA_pH1 (antibody, V domains shown)
VH: EVQLVQSGAEVKKPGASVKVSCKASGYTFTDYNMHWVRQAPGQGLEWMGEINPNSGHAGYNQKFKGRVTMTTDTSTSTAYMELRSLRSDDTAVYYCARLHYDDIYDDWYFDVWGQGTTVTVSS
VL: DIQMTQSPSSLSASVGDRVTITCRASHDISNYLNWYQQKPGKAPKLLIYYTSRLLSGVPSRFSGSGSGTDFTLTISSLQPEDFATYYCQQGDTLPYTFGGGTKVEIK
Take B1: the equilibrium dissociation constant (Kd) was found to be 213 pM in the experiment with human sclerostin [1]; 202 pM with cynomolgus sclerostin [2]; 63.2 pM with mouse sclerostin [3]; 4200 pM in the experiment with rat sclerostin [5]; 25.2 pM with rat sclerostin [7]; 5210 pM with mouse sclerostin [8]. In addition, the koff came out at 0.0156 s⁻¹ with cynomolgus sclerostin [4] and 0.0131 s⁻¹ in the experiment with human sclerostin [6].

B2: amH852/abL152 (antibody, V domains shown)
VH: EVQLVQSGAEVKKPGASVKVSCKASGYTFTDYNMHWVRQAPGKGLEWMGEIMPHSGRYGLKQKFKGRVTMTTDTSTSTAYMELRSLRSDDTAVYYCARLEYSEIYDDWYFDVWGQGTTVTVSS
VL: DIQMTQSPSSLSASVGDRVTITCRASEGIHDALAWYQQKPGKAPKLLIYWASTLESGVPSRFSGSGSGTDFTLTISSLQPEDFATYYCQQGDTLPYTFGGGTKVEIK
On to B2, for which the koff in the experiment with human sclerostin [9] is 0.00257 s⁻¹; with human sclerostin [10], 0.0882 s⁻¹; in the experiment with cynomolgus sclerostin [11], 0.107 s⁻¹; in the experiment with cynomolgus sclerostin [12], 0.0019 s⁻¹.

B3: amH852/bsH638/abL152 (antibody)
chain 1: EVQLVQSGAEVKKPGASVKVSCKASGYTFTDYNMHWVRQAPGKGLEWMGEIMPHSGRYGLKQKFKGRVTMTTDTSTSTAYMELRSLRSDDTAVYYCARLEYSEIYDDWYFDVWGQGTTVTVSS
chain 2: DIQMTQSPSSLSASVGDRVTITCRASEGIHDALAWYQQKPGKAPKLLIYWASTLESGVPSRFSGSGSGTDFTLTISSLQPEDFATYYCQQGDTLPYTFGGGTKVEIK
chain 3: QVQLVQSGAEVKKPGASVKVSCKVSGYTLTHTFMHWVRQAPGKGLEWMGWSDPEIGDHEYASKFQGRVTMTEDTSTDTAYMELSSLRSEDTAVYYCATGDTTYKFDYWGQGTLVTVSS
chain 4: DIQMTQSPSSLSASVGDRVTITCRASEGIHDALAWYQQKPGKAPKLLIYWASTLESGVPSRFSGSGSGTDFTLTISSLQPEDFATYYCQQGDTLPYTFGGGTKVEIK
Take B3: the koff with human sclerostin [9] was found to be 0.000418 s⁻¹; with human sclerostin [10] it was 0.028 s⁻¹; with cynomolgus sclerostin [11] it was 0.0598 s⁻¹; in the experiment with cynomolgus sclerostin [12], 0.000387 s⁻¹.

B4: mabA (antibody, V domains shown)
VH: EVQLVQSGAEVKKPGASVKVSCKASGYTFTDYNMHWVRQAPGQGLEWMGEINPNSGGAGYNQKFKGRVTMTTDTSTSTAYMELRSLRSDDTAVYYCARLGYDDIYDDWYFDVWGQGTTVTVSS
VL: DIQMTQSPSSLSASVGDRVTITCRASQDISNYLNWYQQKPGKAPKLLIYYTSRLLSGVPSRFSGSGSGTDFTLTISSLQPEDFATYYCQQGDTLPYTFGGGTKVEIK
For B4, the Kd with human sclerostin [1] is 80 pM; in the experiment with cynomolgus sclerostin [2], 75.3 pM; in the experiment with mouse sclerostin [3] it was 0.00302 pM; with rat sclerostin [5], 0.00307 pM; in the experiment with rat sclerostin [7], 0.0938 pM; with human sclerostin [13] it was 1440 pM. The Kd with cynomolgus sclerostin [14] worked out at 1400 pM.

B5: mabA_NpH2 (antibody, V domains shown)
VH: EVQLVQSGAEVKKPGASVKVSCKASGYTFTDYNMHWVRQAPGQGLEWMGEINPNSGGAGYNQKFKGRVTMTTDTSTSTAYMELRSLRSDDTAVYYCARLGYDDIYDDWYFDVWGQGTTVTVSS
VL: DIQMTQSPSSLSASVGDRVTITCRASQDISNYLNWYQQKPGKAPKLLIYHTSRLLSGVPSRFSGSGSGTDFTLTISSLQPEDFATYYCQQGDTLPYTFGGGTKVEIK
As to B5, the dissociation constant Kd with human sclerostin [1] turned out to be 323 pM; with cynomolgus sclerostin [2], 280 pM; in the experiment with mouse sclerostin [3] it was 5.57 pM; with rat sclerostin [5], 0.0736 pM; with rat sclerostin [7], 6.61 pM; in the experiment with human sclerostin [13] it was 690 pM. For the same molecule, the Kd in the experiment with mouse sclerostin [8] was found to be 0.0168 pM; in the experiment with cynomolgus sclerostin [14], 627 pM.

B6: mabA_pH2 (antibody, V domains shown)
VH: EVQLVQSGAEVKKPGASVKVSCKASGYTFTDYNMHWVRQAPGQGLEWMGEINPNSGHAGYNQKFKGRVTMTTDTSTSTAYMELRSLRSDDTAVYYCARLHYDHIYDDWYFDVWGQGTTVTVSS
VL: DIQMTQSPSSLSASVGDRVTITCRASHDISNYLNWYQQKPGKAPKLLIYYTSRLLSGVPSRFSGSGSGTDFTLTISSLQPEDFATYYCQQGDTLPYTFGGGTKVEIK
Turning to B6, the dissociation constant Kd in the experiment with human sclerostin [1] turned out to be 258 pM; with cynomolgus sclerostin [2] it was 252 pM; in the experiment with mouse sclerostin [3] it was 80.7 pM; in the experiment with rat sclerostin [5] it was 4450 pM; with rat sclerostin [7], 31.2 pM; in the experiment with mouse sclerostin [8], 5430 pM. In addition, the koff with cynomolgus sclerostin [4] turned out to be 0.0165 s⁻¹; with human sclerostin [6], 0.0139 s⁻¹.

B7: amH848/bsH656/abL152 (antibody)
chain 1: EVQLVQSGAEVKKPGASVKVSCKASGYTFTSYNMHWVRQAPGKGLEWMGEIMPHSGRYGLKQKFKGRVTMTRDTSISTAYMELSRLRSDDTAVYYCARLEYSEIYDDWYFDVWGQGTTVTVSS
chain 2: DIQMTQSPSSLSASVGDRVTITCRASEGIHDALAWYQQKPGKAPKLLIYWASTLESGVPSRFSGSGSGTDFTLTISSLQPEDFATYYCQQGDTLPYTFGGGTKVEIK
chain 3: QVQLVQSGAEVKKPGASVKVSCKVSGYTLTHTFMHWVRQAPGKGLEWMGWSDPEIGDTEYASKFQGRVTMTEDTSTDTAYMELSSLRSEDTAVYYCATGDTTYKFDYWGQGTLVTVSS
chain 4: DIQMTQSPSSLSASVGDRVTITCRASEGIHDALAWYQQKPGKAPKLLIYWASTLESGVPSRFSGSGSGTDFTLTISSLQPEDFATYYCQQGDTLPYTFGGGTKVEIK
Regarding B7, the dissociation rate constant (koff) in the experiment with human sclerostin [9] is 0.000515 s⁻¹; in the experiment with human sclerostin [10], 0.222 s⁻¹; with cynomolgus sclerostin [11], 0.374 s⁻¹; with cynomolgus sclerostin [12], 0.000606 s⁻¹.

B8: mabA_pH3 (antibody, V domains shown)
VH: EVQLVQSGAEVKKPGASVKVSCKASGYTFTDYNMHWVRQAPGQGLEWMGEINPHSGHAGYNQKFKGRVTMTTDTSTSTAYMELRSLRSDDTAVYYCARLHYDDIHDDWYFDVWGQGTTVTVSS
VL: DIQMTQSPSSLSASVGDRVTITCRASHDISNYLNWYQQKPGKAPKLLIYYTSRLLSGVPSRFSGSGSGTDFTLTISSLQPEDFATYYCQQGDTLPYTFGGGTKVEIK
Regarding B8, the dissociation constant Kd came out at 287 pM with mouse sclerostin [3], 184 pM with rat sclerostin [7] and 1050 pM with mouse sclerostin [8]. The molecule also showed an off-rate (koff) with rat sclerostin [15] of 0.0182 s⁻¹.

B9: mabA_NpH1 (antibody, V domains shown)
VH: EVQLVQSGAEVKKPGASVKVSCKASGYTFTDYNMHWVRQAPGQGLEWMGEINPNSGGAGYNQKFKGRVTMTTDTSTSTAYMELRSLRSDDTAVYYCARLGYDDIYDDWYFHVWGQGTTVTVSS
VL: DIQMTQSPSSLSASVGDRVTITCRASQDISNYLNWYQQKPGKAPKLLIYHTSRLLSGVPSRFSGSGSGTDFTLTISSLQPEDFATYYCQQGDTLPYTFGGGTKVEIK
Consider B9, for which the dissociation constant Kd is 193 pM with human sclerostin [1]; 189 pM with cynomolgus sclerostin [2]; 204 pM in the experiment with mouse sclerostin [3]; 292 pM with rat sclerostin [5]; 82.6 pM in the experiment with rat sclerostin [7]; 435 pM with human sclerostin [13]. Also, the equilibrium dissociation constant (Kd) in the experiment with mouse sclerostin [8] came to 503 pM; in the experiment with cynomolgus sclerostin [14], 459 pM.

B10: amH848/bsH638/abL152 (antibody)
chain 1: EVQLVQSGAEVKKPGASVKVSCKASGYTFTSYNMHWVRQAPGKGLEWMGEIMPHSGRYGLKQKFKGRVTMTRDTSISTAYMELSRLRSDDTAVYYCARLEYSEIYDDWYFDVWGQGTTVTVSS
chain 2: DIQMTQSPSSLSASVGDRVTITCRASEGIHDALAWYQQKPGKAPKLLIYWASTLESGVPSRFSGSGSGTDFTLTISSLQPEDFATYYCQQGDTLPYTFGGGTKVEIK
chain 3: QVQLVQSGAEVKKPGASVKVSCKVSGYTLTHTFMHWVRQAPGKGLEWMGWSDPEIGDHEYASKFQGRVTMTEDTSTDTAYMELSSLRSEDTAVYYCATGDTTYKFDYWGQGTLVTVSS
chain 4: DIQMTQSPSSLSASVGDRVTITCRASEGIHDALAWYQQKPGKAPKLLIYWASTLESGVPSRFSGSGSGTDFTLTISSLQPEDFATYYCQQGDTLPYTFGGGTKVEIK
For B10, the off-rate (koff) was 0.000596 s⁻¹ in the experiment with human sclerostin [9], 0.1 s⁻¹ in the experiment with human sclerostin [10], 0.227 s⁻¹ with cynomolgus sclerostin [11] and 0.000606 s⁻¹ with cynomolgus sclerostin [12].
